The results in this text go back to the DeepSol protein solubility set.

This data set can be described thus: soluble on expression in E. coli; label from the status in PepcDB or PDB records.
With “MREIVTIQVGEFANFVGSHFWNFQDELLGLASDPESDPIFRNHNLDMDVLYRSGETQQGVATYTPRLVSVNLKGALGTMSSRGTLYNEGSSSRSDSSATWFGDVDTQRSEPRKRNLFLQSLYEEEHVVGKEKAKEIEDKDIVGCLDEEVECWTDFSKSHYHPQSLYELNGLWMDSQAFNNYGIGKDVFSEASRGEEICDRLRFFVEECDHIQGIKFLVDDSGGFSAVAADFLENMADEYTNVPVLLYSVRTPMSQMSSKKTVSNKLHDAISFSRLSSFCKLFTPIGLPSLTGSKASKFLNLGDEKPYRSSAVYAAALHSSTIPFRMQPTSSDSSEVSNSMDVNTLVQLLTGRGRQNIVAILDSAMPAPTLAGKQLENTLLTSLQALTPEVTEDVEDNQAVESMCILGALRSEDKEALVSEVKNAVDASYEQATTKGKPLFCNLSVSRCPLPVPLPFPSIFGNLVGRKGEILSSPVSDSLYRGSLDVHSIPVATRWRSSSAILPFLETRMGNLEKLGIQWGAMGSDVVRAWGFGREELQEMRENLSKMVSELNPQFFESSDSD”, the “soluble on expression in E. coli” value is “soluble”. “MREVISIHIGQAGVQIGNACWELYCLEHGIQPDGQMPSDKSLGGSDDSFSTFFSETGSGRHVPRAVMVDLEPTVIDEIRTGTYRSLFHPEQLITGKEDAANNYARGHYTIGKEIIDLTLDRIRRLADNCTGLQGFLVFHSFGGGTGSGFTSLLMERLSVDYGKKAKLEFSIYPAPQVSTAVVEPYNSILTTHTTLEHSDCSFMVDNEAIYDICRRNLDIERPSYTNLNRLIGQIVSSITASLRFDGALNVDLTEFQTNLVPYPRIHFPLATFSPVISAEKAYHEQLSVAEITNMCFEPHNQMVKCDPRHGKYMAVCLLFRGDVVPKDVNAAIATIKTKRSIQFVDWCPTGFKVGINYQPPTVVPGGDLAKVPRAVCMLSNTTAIAEAWARLDHKFDLMYAKRAFVHWYVGEGMEEGEFSEAREDLAALEKDYEEVGVDSMEDNGEEGDEY”: the “soluble on expression in E. coli” value was “not soluble”. “MRFEYDLLIVAASPLALDIAYRCAPLGRIGLVIPPPDGQWQWQWQRWWLSQFPPRTLDAQHWQHFQAHLSHGQRRYAPAVLELVGVDVITGVGEFVWRPRCHFQVGGDRLYARGYLLLDAPAAMDFQDMDALSRIELACWHYWSGKAPNADAQGLPVVTTEDAWFNDRLHAALKALGLAIPGSGKRKAPDFSPLHLHPLQRDAQGWLRLNRYGRTSHPQIYACGGWQRGYHLPSLTYFEAFAIARQILQRRPIPLDYRSQPWWIALPIPMARVGWNGRQAQQSLREPIQLWEIQQWSPEGQSLGQVVINRQGRLLGATLIGRAAIASSRIFGRCLDENAFAAITYAGWELDCQRQRSPKARRLPKSGSGLDSPLPLEHHHHHH”: the “soluble on expression in E. coli” value was “soluble”. Regarding “MRFSILGLAFASVLSGCVSTTPTTSALSSTDVTTFYDYQLHSPSGNALALQNLPDELKNADVILVGEWHTHAGIHRFQTDLLRQLSSGERRIALSMEQVTRDKQSVLDAYLKGEIGEQYFMSQSNAWPNYESDYRPLVEFAKQANLPVIAANTPKYIVRCIGRQGVDYLNKLDDEERSFVAENVNTANSPYKEKFMASMHHGKPEQTEKQYAAQVTWDETMAESIVKYLAQNPNAQVVHVAGKFHTEAGLGTAASILQRNPELKVVVVNPTSEISTNSPDYQLEVLEPPVRFVQDANRMAAYKHLSTRNDDLQCKLEHHHHHH”, the “soluble on expression in E. coli” value is given as “soluble”.

Turning to “MRFTKTLFTTALFGASVFSFQSTAWADTLEQQFQQGSEATTRGDYQTTFKFLLPLAEQGNALAQMMLGVMYAKGQGVKQDDVEAVKWYRKAAEQGYADAQAMLGFSYLLGQSGVQVNKSLAKEWFGKACDNGDQNGCEYYGKLNRGEL”, the “soluble on expression in E. coli” value is “not soluble”.

Take “MRFVPSYLIGFITLYLKGKVMLSIFDIYKIGVGPSSSHTNGPMIAGYRFVQQLLPQLNKVARIQVDLYGSLSLTGKGHHTDRATLLGLMGNQPATIKIGDANQTLREALQTGKLRLNGQHDIAFDYHQDLLFHQDNLPLHENGMTLSAFDTQGQQIDFETYYSVGGGFVATAEQLQNGT”: the “soluble on expression in E. coli” value was “not soluble”.

For “MRGGPVNSHDVTDEQWEGLAQVVPLRGRDAWPSAVGHRSIPEAQTEARRRFVVLRVNIFADARDVAETLMRGIPVLLDLTSAETEVAKRVLDFSTGVVFGLASGMHRVDRNVFLLTPPGTEVQGLMEGVGVPGILEHHHHHH”, the “soluble on expression in E. coli” value is “not soluble”.

For the sequence “MRGGSSLDSFPGKGTLHTLEIENFKSYKGKHTIGPFTRFTAIIGPNGSGKSNLMDAISFVLGEKPSSLRVRKYADLIHGAPINKPVAKKCRVTMNYKYSDGKVKAFTRGVNNGTSEHLLDGQTVTSAAYSQEMESINIFIKARNFLVYQGAIENIAMKTPKERTQLFEELSRSHEFQAEYERLKVEMTKAEDDTQHNMNKRRGIAQEKREAKMEKDEAEKYQTMKNELAAKSTMLFLHQLFHCERTIDESKEEINAQKKTIASLEATRSKEEAKIAAVHQEHRKALREVQKMTRKLDQKETDLAEKQQNMLTLKVSVAHEHKKLEIAKKMLAAAESKAENNSTQLADLKKSKKELEKKKAAYEAEIQDMMQRGELNLSDEQVREYGQLKDQAQRESAMVQRELLMAEQVFEGDKSSLNHELRRQKEHQERVKAKEGDVRRIETQIATLAQRIKETEEETKILKADLKKIENDVVIDKSAAAEYNKELVAVVRQLSEASGDSAEGERNQRRTEALEGLKKNFPESVYGRLVDLCQPSHKRFNIATTKILQKHMNSIVCDTEETAAKAIVYLKDHRYPPETFLPNDALVVNPLNEKLREIKKPAGVKLVFDVINPQHQAARKALQFVCGNALVCESQEDAKQLAYGGGELKDRFKAVSMDGTLFQQSGVMSGGSADLRQKSKKWDEKVVKQLREKRNQLNEKIADLQKHRRRELEVESVRSKINGNEQRLAMMKRDLKNMREMQLERLQNELEGMTAEMNMLPPRISNCQEKLERSESTLKSLQTKSNEVADRIFADFCTRVGIASIRDYENREMRIKQEMEDKLRSFDDDIQKLAYEIDFVTEQDGNRKVEVEKEKVSQIDRQYKDMKKKEKTAAAALKEHTESMEQDKEVLEEKKALSHKLETEWNEVKKIAQVAMKDFTKAEKELLRLESLLTKKQYERHSLLHSVKLGQIALPLKSGSMADVEYEEDDGDIYFIIFVSLFPFKFQLISDDTASQSSQSATDGPSVSEEQIQREQHIKINYDSLPREYKDVDDDDGVRQMSNRLNVEIDELQKNVSKMNAPNLKANQRMAEVKEREAESTEELENARKKAKRIRQQFEKVKTDRYRRFQDFFDPVANTIDDIYKQLSRNTSAQAFLGADNMEEPYLDGIQYNCVAPGKRFRPMDNLSGGEKTIAALALLFAVHGRNPAPFFVLDEIDAALDNTNIGKVASYICESAREHMQIIVISLKEEFYNKADSLIGIFPYPAACTTSGVLTFDLTRFKQIGLNEMTENPPTPSIAT”, the “soluble on expression in E. coli” value is listed as “not soluble”. As for “MRGSHHHHHHGMASMTGGQQMGRDLYDDDDKDHPFTMADQAPFDTDVNTLTRFVMEEGRKARGTGELTQLLNSLCTAVKAISSAVRKAGIAHLYGIAGSTNVTGDQVKKLDVLSNDLVMNMLKSSFATCVLVSEEDKHAIIVEPEKRGKYVVCFDPLDGSSNIDCLVSVGTIFGIYRKKSTDEPSEKDALQPGRNLVAAGYALYGSATMLVLAMDCGVNCFMLDPAIGEFILVDKDVKIKKKGKIYSLNEGYAKDFDPAVTEYIQRKKFPPDNSAPYGARYVGSMVADVHRTLVYGGIFLYPANKKSPNGKLRLLYECNPMAYVMEKAGGMATTGKEAVLDVIPTDIHQRAPVILGSPDDVLEFLKVYEKHSAQ”, the “soluble on expression in E. coli” value is listed as “soluble”. Take “MRGSHHHHHHGSKVRGKYDGPKINDYDKFYEDIWKKYVPQPVEVKQGSVYDYYDILEELGSGAFGVVHRCVEKATGRVFVAKFINTPYPLDKYTVKNEISIMNQLHHPKLINLHDAFEDKYEMVLILEFLSGGELFDRIAAEDYKMSEAEVINYMRQACEGLKHMHEHSIVHLDIKPENIMCETKKASSVKIIDFGLATKLNPDEIVKVTTATAEFAAPEIVDREPVGFYTDMWAIGVLGYVLLSGLSPFAGEDDLETLQNVKRCDWEFDEDAFSSVSPEAKDFIKNLLQKEPRKRLTVHDALEHPWLKGDHSNLTSRIPSSRYNKIRQKIKEKYADWPAPQPAIGRIANFSSLRKHRPQEYQIYDSYFDRKEAVPRFKLRPSLISS”: the “soluble on expression in E. coli” value is listed as “soluble”. Regarding “MRGSHHHHHHGSSQVADKDDPTNKFYQSVIQLGNGFLDVFTSFGGLVAEAFGFKSDPKKSDVKTYFTTVAAKLEKTKTDLNSLPKEKSDISSTTGKPDSTGSVGTAVEGAIKEVSELLDKLVKAVKTAEGASSGTAAIGEVVADADAAKVADKASVKGIAKGIKEIVEAAGGSEKLKAVAAAKGENNKGAGKLFGKAGAAAHGDSEAASKAAGAVSAVSGEQILSAIVTAADAAEQDGKKPEEAKNPIAAAIGDKDGGAEFGQDEMKKDDQIAAAIALRGMAKDGKFAVKDGEKEKAEGAIKGAAESAVRKVLGAITGLIGDAVSSGLRKVGDSVKAASKETPPALNK”, the “soluble on expression in E. coli” value is recorded as “soluble”. Consider “MRGSHHHHHHTDPALRAMRLVQLSRHSIAFPSPEGALREPNGLLALGGDLSPARLLMAYQRGIFPWFSPGDPILWWSPDPRAVLWPESLHISRSMKRFHKRSPYRVTMNYAFGQVIEGCASDREEGTWITRGVVEAYHRLHELGHAHSIEVWREDELVGGMYGVAQGTLFCGESMFSRMENASKTALLVFCEEFIGHGGKLIDCQVLNDHTASLGACEIPRRDYLNYLNQMRLGRLPNNFWVPRCLFSPQEGLCGR”, for which the “soluble on expression in E. coli” value was “soluble”. With “MRHALITAGTKGLGKQVTEKLLAKGYSVTVTYHSDITAMKKMKETYKNMEERLQFVQADVTKKEDLHKIVEEAISRFGKIDFLINNAGPYVFERKKLVDYEEDEWNEMIQGNLTAVFHLLKLVVPIMRKQNFGRIINYGFQGADSAPGWIYRSAFAAAKVGLVSLTKTVAYEEAEYGITANMVCPGDIIGEMKEATIQEARQLKERNTPIGRSGTGEDIARTISFLCEEDSDMITGTIIEVTGAVDVIHRHR”, the “soluble on expression in E. coli” value is reported as “not soluble”. The entry for “MRIEAHQVFNVSIQLCEFFNVDLSDRGYYQIRLRPRKTAEIGSVDISHDTEGDRDTGPKTSSNILLAHVYQGAAVSKTVEVTYQHEKFNLDDWFHISVQFNSTLNLCEPQKLEIEIELLYMDRYHPPQYESFVKITKRIVEIPLDPTRLVAAARSLYFDSTYLSAITMSVFSSLVMVATRQRKANASESASSTKSTKLRRVYNSSAHALLFATRSIQQFIVNNSRLINASVSVVVLDVQTEMKAALQQFDSSDHPTRCVETDVCEWSTKITLIYQQMLILFRKSKELNQQLLLIFDKQRRAVFREAFWINERPIDKCLIRTPVSVLEHYKSIIKVDYLRKLPRCTIFCEETDCPGEFCPIIFEDVFTRNSVGLLDLNNANRQVTIPNSASMPVVKAHEKHKSFREKLRNETRKLIHPRRKSLDCSQSLSRKLDGGVTSRSRTKTLKETTSTDGGGGLLLKNIPNSQENNFSPEFPGPSRDTATESPSCSSEPIASPSPSSEFGRCSAAGELFQDDGIPLISKESVTSEEIANALRTSVSADDVLSCRVTSSTDMKLTEEHPKDRMAEFELLREREAAKKMLRQQTNYEGHLYSEQSGRSTAGPVCTPIKSSLVIGDPVVRSKNKTHLVVFVHGLEGSQEDLVPFRCGLDQAIAAHYHCIQMEGRDFDEEPWAFEYLMSSANRSQTWADITTMAHNLLSEVREYVEEARNDIQRISFLAHSLGGVIVRSAVGLAPEVEMQWMIDRCYTLMTINSPHLGLAYVQKHIHWGVQFVKWWKKSRSMEQLSFRDSVDFASSFVYKTSLNNACGKFKNILLVGTPHDQLVPYMSSLLVPSKISSEDQSQFGEAYREMMTACLSSIQNSEKSENLVRYTTFHQLGSSNTQKITGRAAHVIALEDSVFIEKLFNISAVRYFV” is “not soluble”; for “MRIGHGFDVHAFGGEGPIIIGGVRIPYEKGLLAHSDGDVALHALTDALLGAAALGDIGKLFPDTDPAFKGADSRELLREAWRRIQAKGYTLGNVDVTIIAQAPKMLPHIPQMRVFIAEDLGCHMDEVNVKATTTEKLGFTGRGEGIACEAVALLMKAAK” it is “not soluble”.
